Experimental data published in publication PMC3830645.

B1: His6-Mig6 segment 1+2 (aa 336–412) mutant Y394E (domain or fragment)
chain: KSLPSYLNGVMPPTQSFAPDPKYVSSKALQRQNSEGSASKVPCILPIIENGKKVSSTHEYLLPERPPYLDKYEKFFR
B2: unligated GST-Mig6 (aa 336–391) (domain or fragment)
chain: KSLPSYLNGVMPPTQSFAPDPKYVSSKALQRQNSEGSASKVPCILPIIENGKKVPG

What was measured:
[1] = target: EGF/tEGFR: purified tail-truncated EGFR (aa 25–1022) with EGF, solubilized in detergent or reconstituted in nanodiscs
[2] = target: EGF/tEGFR: purified tail-truncated EGFR (aa 25–1022) with EGF, solubilized in detergent or reconstituted in nanodiscs; remark: listed apart in the source

Binder | IC50 of inhibition of tEGFR kinase activity [1] | IC50 of inhibition of EGFR (tEGFR) kinase activity [2]
B1 | 740 nM | –
B2 | – | > 3000 nM
